target: T1, Arylacetonitrilase from Alcaligenes faecalis (NitAF) (Alcaligenes faecalis, UniProt P20960); test: ammonia release, Michaelis-Menten; type: biochemical; conditions: 50 mM buffer pH 7.5, 10% methanol, 30 °C, 0.5-30 mM substrate
T1 construct: full-length with C-terminal His6 tag (tag kept), vector pTrc99A-derived, E. coli BL21(DE3), Ni-NTA; 1071 bp, 357 amino acids printed; subunit about 32 kDa by SDS-PAGE, native about 460 kDa (homo-oligomer)
Excerpt: (§1) ammonia release, Michaelis-Menten on Arylacetonitrilase from Alcaligenes faecalis (NitAF)

T1 sequence (P20960 whole entry): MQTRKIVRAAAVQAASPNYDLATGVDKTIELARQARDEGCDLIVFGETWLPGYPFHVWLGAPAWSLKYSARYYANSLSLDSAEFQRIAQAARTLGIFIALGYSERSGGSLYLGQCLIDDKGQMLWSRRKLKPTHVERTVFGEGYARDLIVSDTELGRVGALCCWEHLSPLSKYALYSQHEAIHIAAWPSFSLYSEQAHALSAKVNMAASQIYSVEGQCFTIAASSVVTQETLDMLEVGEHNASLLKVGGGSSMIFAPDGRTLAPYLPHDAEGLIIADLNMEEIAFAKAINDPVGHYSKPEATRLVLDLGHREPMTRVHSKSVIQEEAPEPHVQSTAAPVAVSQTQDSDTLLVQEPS

Compound | Km [µM]
N#CCc1ccccc1 [phenylacetonitrile] | 860 ± 70

system: N#CCc1ccccc1; test: ammonia release, Michaelis-Menten; type: biochemical, Alcaligenes faecalis; conditions: 50 mM buffer pH 7.5, 10% methanol, 30 °C, 0.5-30 mM substrate
Excerpt: as §1

Compound | Km [µM] | kcat [s⁻¹] | kcat/Km [M⁻¹ s⁻¹]
Arylacetonitrilase from Alcaligenes faecalis (NitAF) (Alcaligenes faecalis; F140A) | 4200 ± 410 | 15.6 ± 1.2 | 3710
Arylacetonitrilase from Alcaligenes faecalis (NitAF) (Alcaligenes faecalis; F140G) | 24100 ± 2200 | – | –
Arylacetonitrilase from Alcaligenes faecalis (NitAF) (Alcaligenes faecalis; F140H) | 890 ± 100 | 63.5 ± 4.7 | 71400
Arylacetonitrilase from Alcaligenes faecalis (NitAF) (Alcaligenes faecalis; F140L) | 2130 ± 210 | 38.8 ± 3.8 | 18200
Arylacetonitrilase from Alcaligenes faecalis (NitAF) (Alcaligenes faecalis; F140V) | 2950 ± 320 | 25 ± 2.4 | 8480
Arylacetonitrilase from Alcaligenes faecalis (NitAF) (Alcaligenes faecalis; F140W) | 1450 ± 120 | 143 ± 12 | 98600

Reference: paper PMC7660301, “Phe-140 Determines the Catalytic Efficiency of Arylacetonitrilase from Alcaligenes faecalis” (International Journal of Molecular Sciences, 2020)
